One block for each substance: values may come before it.
Assays:
MBP–APO1 mSOL (human) = MBP–APO1 mSOL (human) (UniProt P41238); assay: SEC; MBP–APO1 fusion proteins; SEC in 20 mM HEPES pH 7.5, 500 mM NaCl, 0.5 mM TCEP
MBP–APO1 mXT (human) [1] = target: MBP–APO1 mXT (human) (UniProt P41238); assay: as above
MBP–APO1 mXT (human) [2] = target: MBP–APO1 mXT (human) (UniProt P41238); assay: SEC-MALS; MBP–APO1 fusions with Leu, Gln or Ala at position 173; SEC and MALS
[3] = target: MBP–APO1 mXT-173L (human) (UniProt P41238); assay: as above
[4] = target: MBP–APO1 mXT-173Q (human) (UniProt P41238); assay: as above

stoichiometry N (MBP–APO1 mSOL (human)): 2
Substance: MBP–APO1 mSOL (from UniProt P41238 1-236) (enzyme)

stoichiometry N (MBP–APO1 mXT (human) [1]): 2
stoichiometry N (MBP–APO1 mXT (human) [2]): 2
Substance: MBP–APO1 mXT (from UniProt P41238 15-236) (enzyme)

stoichiometry N [3]: 2
Substance: MBP–APO1 mXT-173L (from UniProt P41238 15-236) (enzyme)

percent in the dimer peak [4]: 1 to 2%
Substance: MBP–APO1 mXT-173Q (from UniProt P41238 15-236) (enzyme)
